Measurements as given in patent US20210009657A1 (THEACHON, published 2021).

Columns and labels:
human FGF2 = biological target: T1, human FGF2 (human, UniProt P09038 143-288); test: fixed FGF2 incubated with increasing decoy, unbound FGF2 by ELISA
T1 construct: also called hFGF2; Fibroblast Growth Factor 2
Experimental: Fixed amounts of human FGF2, or human FGF9 (R&D Systems) were incubated for 2 h at 37° C. with increasing doses of each recombinant protein (0 to 250 ng/ml) in PBS 1% BSA. Specific commercial ELISA kits (R&D Systems; Clinisciences) were used to quantify remaining unbound FGFs. 1000 pg/ml or 1200 pg/ml were used for FGF2 and FGF9 respectively based on the sensitivity of the corresponding ELISA kits.

[1] = biological target: T2, Aggrecan (R&D systems #1220-PG-025) (UniProt P16112 20-675); test: ELISA, aggrecan coated on plate, detection with anti-FGFR3 antibody
T2 construct: Coated on the ELISA plate at 10 ug/mL
T2 sequence (P16112 20-675 limits assumed): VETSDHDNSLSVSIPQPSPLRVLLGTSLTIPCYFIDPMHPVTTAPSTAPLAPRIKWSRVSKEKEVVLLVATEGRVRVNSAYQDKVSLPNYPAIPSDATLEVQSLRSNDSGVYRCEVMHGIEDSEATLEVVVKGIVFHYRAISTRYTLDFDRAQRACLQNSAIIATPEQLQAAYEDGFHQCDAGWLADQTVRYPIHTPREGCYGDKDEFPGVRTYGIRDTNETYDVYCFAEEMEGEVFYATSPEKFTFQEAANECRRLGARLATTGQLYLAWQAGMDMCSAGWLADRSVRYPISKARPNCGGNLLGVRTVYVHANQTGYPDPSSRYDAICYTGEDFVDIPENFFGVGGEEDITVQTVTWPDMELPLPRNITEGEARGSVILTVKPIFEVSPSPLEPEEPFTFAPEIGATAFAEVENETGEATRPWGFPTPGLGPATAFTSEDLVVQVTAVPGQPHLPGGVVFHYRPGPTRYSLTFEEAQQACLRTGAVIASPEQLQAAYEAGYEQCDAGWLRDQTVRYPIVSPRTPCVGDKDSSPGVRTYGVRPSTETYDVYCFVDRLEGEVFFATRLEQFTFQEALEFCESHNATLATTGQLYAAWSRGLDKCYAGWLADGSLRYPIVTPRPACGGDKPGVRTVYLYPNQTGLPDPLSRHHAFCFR
Experimental: ELISA plate were coated with 10 μg/mL of Aggrecan (R&D systems #1220-PG-025) in a final volume of 50μI per well and incubated overnight at room temperature. Plate were blocked with 300μI of PBS 1% BSA per well during 1 h at room temperature. Different amount of protein (0 to 100 µl ) were incubated for 1 h at room temperature. Specific detection antibody against FGFR3 from an R&D system ELISA kit (#DYC766E) was used to detect recombinant protein fixed to aggrecan as recommended by the manufacturer.

T1 sequence (P09038 143-288 limits assumed): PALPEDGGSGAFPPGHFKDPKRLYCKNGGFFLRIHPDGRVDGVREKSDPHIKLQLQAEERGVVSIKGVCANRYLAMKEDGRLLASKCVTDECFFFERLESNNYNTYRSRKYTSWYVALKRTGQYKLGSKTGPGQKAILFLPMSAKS

| Binder | binding result (human FGF2) | binding result [1] |
| --- | --- | --- |
| FLAG-sFGFR3_Del4-LK1-LK2 (other, Fusion of a soluble FGFR3 fragment with the LK1 and LK2 link domains of human HPLN1; Made in HEK 293 cells; also called FP; fusion protein) DYKDDDDKLVDQIPAMGAPACALALCVAVAIVAGASSESLGTEQRVVGRAAEVPGPEPGQQEQLVFGSGDAVELSCPPPGGGPMGPTVWVKDGTGLVPSERVLVGPQRLQVLNASHEDSGAYSCRQRLTQRVLCHFSVRVTDAPSSGDDEDGEDEAEDTGVDTGAPYWTRPERMDKKLLAVPAANTVRFRCPAAGNPTPSISWLKNGREFRGEHRIGGIKLRHQQWSLVMESVVPSDRGNYTCVVENKFGSIRQTYTLDVLERSPHRPILQAGLPANQTAVLGSDVEFHCKVYSDAQPHIQWLKHVEVNGSKVGPDGTPYVTVLKVSLESNASMSSNTSGSGSGSGSGSGSGSVVFPYFPRLGRYNLNFHEAQQACLDQDAVIASFDQLYDAWRGGLDWCNAGWLSDGSVQYPITKPREPCGGQNTVPGVRNYGFWDKDKSRYDVFCFTSNFNGRFYYLIHPTKLTYDEAVQACLNDGAQIAKVGQIFAAWKILGYDRCDAGWLADGSVRYPISRPRRRCSPTEAAVRFVGFPDKKHKLYGVYCFRAYN | binds | – |
| FLAG-sFGFR3_Del4 (receptor, Obtained by site directed mutagenesis of sFGFR3-pFLAG-CMV3 and made in HEK 293 cells; also called Del4 variant) DYKDDDDKMGAPACALALCVAVAIVAGASSESLGTEQRVVGRAAEVPGPEPGQQEQLVFGSGDAVELSCPPPGGGPMGPTVWVKDGTGLVPSERVLVGPQRLQVLNASHEDSGAYSCRQRLTQRVLCHFSVRVTDAPSSGDDEDGEDEAEDTGVDTGAPYWTRPERMDKKLLAVPAANTVRFRCPAAGNPTPSISWLKNGREFRGEHRIGGIKLRHQQWSLVMESVVPSDRGNYTCVVENKFGSIRQTYTLDVLERSPHRPILQAGLPANQTAVLGSDVEFHCKVYSDAQPHIQWLKHVEVNGSKVGPDGTPYVTVLKVSLESNASMSSNT | – | no binding |
